From patent US20090022728A1 (RINAT NEUROSCIENCE, published 2009)
Where no end group is shown, it is not given here.

Assays:
Aβ1-40 peptide [1] = target: T1, Aβ1-40 peptide; assay: SPR, mAb on CM5 chip, peptide flowed
T1 construct: synthetic peptide, not biotinylated; also called 1-40 (WT); beta amyloid 1-40
Protocol: Affinities of 9TL monoclonal antibody were determined using the BIAcore3000™ surface plasmon resonance (SPR) system (BIAcore, INC, Piscaway N.J.). […] CM5 chips were activated with N-ethyl-N′-(3-dimethylaminopropyl)-carbodiimide hydrochloride (EDC) and N-hydroxysuccinimide (NHS) according to the supplier's instructions. Antibody 9TL or its variants was diluted into 10 mM sodium acetate pH 4.0 or 5.0 and injected over the activated chip at a concentration of 0.005 mg/mL. Using variable flow time across the individual chip channels, a range of antibody density was achieved: 1000-2000 or 2000-3000 response units (RU). The chip was blocked with ethanolamine. […] HBS-EP buffer (0.01M HEPES, pH 7.4, 0.15 M NaCl, 3 mM EDTA, 0.005% Surfactant P20) was used as running buffer for all the BIAcore assays. […] Kinetic association rates (kₒₙ) and dissociation rates (koff) were obtained simultaneously by fitting the data to a 1:1 Langmuir binding model (Karlsson, R. Roos, H. Fagerstam, L. Petersson, B. (1994). Methods Enzymology 6. 99-110) using the BIAevaluation program. Equilibrium dissociation constant (KD) values were calculated as koff/kₒₙ.

[2] = target: T2, biotinylated Aβ22-37 peptide (also: biotinylated, site not given here); assay: SPR, Fab over biotinylated peptide on streptavidin chip
T2 peptide: EDVGSNKGAIIGLMVG

[3] = target: T3, biotinylated Aβ1-42 peptide (biotinylated (N-biotinylated in Example 7)); assay: as above
T3 construct: captured on streptavidin chip; also called N-biotinylated Aβ1-42

[4] = target: T4, biotinylated Aβ1-40 peptide (biotinylated (N-biotinylated in Example 7)); assay: as above
T4 construct: captured on streptavidin (SA) chip; also called Biotinylated Aβ peptide 1-40; Aβ1-40 on SA chip

Aβ1-42 peptide = target: T5, Aβ1-42 peptide; assay: ELISA, nonbiotinylated peptide on plate
T5 construct: also called 1-42 (WT)
Protocol: (§1) ELISA was used for measuring binding of antibody 6G and variants to nonbiotinylated Aβ peptides. NUNC maxisorp plates were coated with 2.5 ug/ml of Aβ peptides in PBS pH 7.4 for more than 1 hour at 4° C. Plates were blocked with 1% BSA in PBS buffer pH 7.4. Primary antibody (from cell supernatants, serum containing anti-Aβ antibody, or purified full antibody or Fabs at desired dilution) was incubated with the immobilized Aβ peptides for 1 h at room temperature. After washing, the plates were incubated with secondary antibody, a HRP conjugated goat anti-human kappa chain antibody (MP Biomedicals, 55233) at 1:5000 dilution. After washing, bound secondary antibody was measured by adding TMB substrate (KPL, 50-76-02, 50-65-02). The HRP reaction was stopped by adding 1M phosphoric acid and absorbance at 450 nm was measured.
(§2) All amino acid substitutions of the variants shown in Table 8 are described relative to the sequence of 6G. Binding was determined by ELISA described above with nonbiotinylated Aβ₁₋₄₀ or Aβ₁₋₄₂ immobilized on the surface of an ELISA plate.

Aβ1-40 peptide [5] = target: T1, Aβ1-40 peptide; assay: ELISA, nonbiotinylated peptide on plate
Protocol: as §1, §2

T4 sequence (peptide, as listed by the source): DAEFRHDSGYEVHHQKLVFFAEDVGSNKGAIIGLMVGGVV
T3 sequence (peptide, as listed by the source): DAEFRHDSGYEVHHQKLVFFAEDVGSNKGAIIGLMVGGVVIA

B1: antibody 9TL (full monoclonal antibody) (antibody, human IgG2, kappa, V domains shown)
VH: QVQLVQSGAEVKKPGASVKVSCKASGYYTEAYYIHWVRQAPGQGLEWMGRIDPATGNTKYAPRLQDRVTMTRDTSTSTVYMELSSLRSEDTAVYYCASLYSLPVYWGQGTTVTVSS
VL: DVVMTQSPLSLPVTLGQPASISCKSSQSLLYSDAKTYLNWFQQRPGQSPRRLIYQISRLDPGVPDRFSGSGSGTDFTLKISRVEAEDVGVYYCLQGTHYPVLFGQGTRLEIKR
notes: human IgG2a constant region with A330P331 to S330S331; human kappa light chain; also called 9TL mAb
B1 was tested, and the Kd (Aβ1-40 peptide [1]) was 0.9 nM, the koff (Aβ1-40 peptide [1]) was 0.000389 s⁻¹ and the kon (Aβ1-40 peptide [1]) was 425000 M⁻¹ s⁻¹.

B2: 6G Fab fragment (Fab, V domains shown)
VH: QVQLVQSGAEVKKPGASVKVSCKASGYTFTTYAIHWVRQAPGQGLEWMGFTSPYSGVSNYNQKFKGRVTMTRDTSTSTVYMELSSLRSEDTAVYYCARFDNYDRGYVRDYWGQGTLVTVS
VL: DIVMTQSPDSLAVSLGERATINCRASESVDNDRISFLNWYQQKPGQPPKLLIYAATKQGTGVPDRFSGSGSGTDFTLTISSLQAEDVAVYYCQQSKEFPWSFGGGTKVEIKR
notes: Fab from E. coli with human IgG2 CH1 (P01859) and human kappa constant domain (CAA09181)
In the case of B2, the Kd [2] is reported as 11 nM, the koff [2] is reported as 0.0039 s⁻¹ and the kon [2] is reported as 360000 M⁻¹ s⁻¹. It also gave a Kd [3] of 80 nM, a koff [3] of 0.0016 s⁻¹ and a kon [3] of 18000 M⁻¹ s⁻¹. For the same binder, the Kd [4] was 2 nM, the koff [4] was 0.0007 s⁻¹ and the kon [4] was 300000 M⁻¹ s⁻¹.

B3: 6G light chain variant 6D (E97T) (antibody, V domains shown)
VH: QVQLVQSGAEVKKPGASVKVSCKASGYTFTTYAIHWVRQAPGQGLEWMGFTSPYSGVSNYNQKFKGRVTMTRDTSTSTVYMELSSLRSEDTAVYYCARFDNYDRGYVRDYWGQGTLVTVS
VL: DIVMTQSPDSLAVSLGERATINCRASESVDNDRISFLNWYQQKPGQPPKLLIYAATKQGTGVPDRFSGSGSGTDFTLTISSLQAEDVAVYYCQQSKTFPWSFGGGTKVEIKR
In the case of B3, the “A450 ELISA” value (Aβ1-42 peptide) is reported as 1.34 A450 and the “A450 ELISA” value (Aβ1-40 peptide [5]) is reported as 2.41 A450.

B4: 6G light chain variant 8G (E97V) (antibody, V domains shown)
VH: QVQLVQSGAEVKKPGASVKVSCKASGYTFTTYAIHWVRQAPGQGLEWMGFTSPYSGVSNYNQKFKGRVTMTRDTSTSTVYMELSSLRSEDTAVYYCARFDNYDRGYVRDYWGQGTLVTVS
VL: DIVMTQSPDSLAVSLGERATINCRASESVDNDRISFLNWYQQKPGQPPKLLIYAATKQGTGVPDRFSGSGSGTDFTLTISSLQAEDVAVYYCQQSKVFPWSFGGGTKVEIKR
For B4, the “A450 ELISA” value (Aβ1-42 peptide) was 0.9 A450 and the “A450 ELISA” value (Aβ1-40 peptide [5]) was 2.6 A450.
